This passage reports copy number and Ratio results from patent US10724034B2, “Genetic encoding of chemical post-translational modification for phage-displayed libraries” (THE GOVERNORS OF THE UNIVERSITY OF ALBERTA, priority 2014, dated 2020).

For assay [1], the target named is streptavidin (UniProt P22629). In words: panning/deep seq., Streptavadin rep 3.
The target of assay [2] is streptavidin (UniProt P22629). The experiment in a line: panning/deep seq., Streptavadin rep 2.
Assay [3] concerns the target streptavidin (UniProt P22629). In words: panning/deep seq., Streptavadin rep 1.
In assay [4] the target is streptavidin (UniProt P22629). The experiment in a line: panning/deep seq., Ratio col 2 (Streptavadin/Naive by arithmetic).
Assay [5] deals with streptavidin (UniProt P22629). In words: panning/deep seq., Ratio col 3 (Streptavadin/Bulk amplified by arithmetic).
Assay [6] has as its target streptavidin (UniProt P22629). The experiment in a line: panning/deep seq., Ratio col 1 (Streptavadin/Blank by arithmetic).
Assay [7] concerns the target T1, Bovine carbonic anhydrase II (bovine, UniProt P00921 2-260).
T1 construct: Commercial protein; also called BCA
In words: panning/deep seq., Carbonic rep 2 [Carbonic Anhydrase].

The target in assay [8] is T1, Bovine carbonic anhydrase II. In words: panning/deep seq., Carbonic rep 1 [Carbonic Anhydrase].
For assay [9] the target is unchanged. The experiment in a line: panning/deep seq., Carbonic rep 3 [Carbonic Anhydrase].
For assay [10] the target is unchanged. In words: panning/deep seq., Ratio col 3 (Carbonic/Bulk amplified by arithmetic) [Carbonic Anhydrase].
For assay [11] the target is unchanged. In words: panning/deep seq., Ratio col 2 (Carbonic/Naive by arithmetic) [Carbonic Anhydrase].
Assay [12] shares this target. The experiment in a line: panning/deep seq., Ratio col 1 (Carbonic/Blank by arithmetic) [Carbonic Anhydrase].

T1 sequence (P00921 2-260 limits assumed): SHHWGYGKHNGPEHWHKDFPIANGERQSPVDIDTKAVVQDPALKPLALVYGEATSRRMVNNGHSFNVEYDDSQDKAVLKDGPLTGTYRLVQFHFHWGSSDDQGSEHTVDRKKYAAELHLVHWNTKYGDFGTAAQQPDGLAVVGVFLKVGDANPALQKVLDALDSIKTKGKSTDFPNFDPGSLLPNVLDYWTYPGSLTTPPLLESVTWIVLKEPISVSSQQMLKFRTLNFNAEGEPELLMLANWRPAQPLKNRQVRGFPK
streptavidin, sequence (P22629 37-163 limits assumed): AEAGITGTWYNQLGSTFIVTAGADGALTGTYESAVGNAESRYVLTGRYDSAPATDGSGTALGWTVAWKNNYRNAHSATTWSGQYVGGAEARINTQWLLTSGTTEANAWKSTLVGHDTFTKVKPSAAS

Consider Bio-AHPL (peptide), for which the copy number worked out at 333 in the assay with streptavidin [1], 113 with streptavidin [2] and 382 with streptavidin [3]. Moreover, the Ratio in the assay with streptavidin [4] was determined as 138; in the assay with streptavidin [5], 138; with streptavidin [6], 920.
For Bio-GYTQ (peptide), the copy number in the assay with streptavidin [1] came out at 147; with streptavidin [2], 227; in the assay with streptavidin [3], 240. Besides, the Ratio with streptavidin [4] turned out to be 68; in the assay with streptavidin [5] it was 614; in the assay with streptavidin [6], 682.
In the case of Bio-HFTN (peptide), the copy number with streptavidin [1] was found to be 98; with streptavidin [2], 135; in the assay with streptavidin [3], 246. Also, the Ratio in the assay with streptavidin [4] was found to be 532; in the assay with streptavidin [5], 68; with streptavidin [6], 532.
Regarding Bio-HKLN (peptide), the results for the copy number with streptavidin [1], with streptavidin [2] and with streptavidin [3] were 72, 98 and 95, respectively. Also, the Ratio with streptavidin [4] was 88; in the assay with streptavidin [5], 12; with streptavidin [6], 294.
On to Bio-HLRV (peptide), for which the copy number with streptavidin [1] was 168; with streptavidin [2] it was 110; in the assay with streptavidin [3], 58. The Ratio with streptavidin [4] was 373; with streptavidin [5], 56; with streptavidin [6], 373.
Take Bio-HMPR (peptide): the copy number was determined as 71 with streptavidin [1], 121 in the assay with streptavidin [2] and 118 with streptavidin [3]. The Ratio with streptavidin [4] amounted to 52; in the assay with streptavidin [5], 44; with streptavidin [6], 344.
As for Bio-HPSY (peptide), the copy number with streptavidin [1] was 104; in the assay with streptavidin [2], 214; with streptavidin [3], 85. The Ratio in the assay with streptavidin [4] came to 67; with streptavidin [5], 58; with streptavidin [6] it was 448.
Take Bio-PALP (peptide): the copy number was determined as 210 with streptavidin [1], 108 in the assay with streptavidin [2] and 125 with streptavidin [3]. The Ratio with streptavidin [4] is 492; with streptavidin [5], 89; with streptavidin [6], 492.
For the substance Bio-PFVQ (peptide), the copy number with streptavidin [1] amounted to 54; in the assay with streptavidin [2], 61; in the assay with streptavidin [3] it was 82. The Ratio in the assay with streptavidin [4] stood at 219; with streptavidin [5], 99; with streptavidin [6], 219.
As to Bio-PHLP (peptide), the figures for the copy number in the assay with streptavidin [1], with streptavidin [2] and in the assay with streptavidin [3] were 123, 37 and 84, respectively. Moreover, the Ratio came out at 14 with streptavidin [4], 15 with streptavidin [5] and 271 in the assay with streptavidin [6].
For Bio-PHYN (peptide), the copy number in the assay with streptavidin [1] came out at 70; with streptavidin [2] it was 110; with streptavidin [3] it was 53. Further, the Ratio with streptavidin [4] is 21; with streptavidin [5], 58; in the assay with streptavidin [6], 259.
Consider Bio-PLAQ (peptide), for which the copy number with streptavidin [1] is 50; with streptavidin [2], 71; with streptavidin [3], 110. For the same substance, the Ratio in the assay with streptavidin [4] turned out to be 38; in the assay with streptavidin [5] it was 33; in the assay with streptavidin [6], 257.
Take Bio-PQMS (peptide): the copy number with streptavidin [1] is 453; with streptavidin [2], 248; with streptavidin [3], 282. The Ratio with streptavidin [4] is 41; with streptavidin [5], 197; with streptavidin [6], 1090.
With Bio-PSIG (peptide), the values for the copy number in the assay with streptavidin [1], in the assay with streptavidin [2] and in the assay with streptavidin [3] were 174, 125 and 145, respectively. Moreover, the Ratio in the assay with streptavidin [4] turned out to be 21; with streptavidin [5] it was 56; in the assay with streptavidin [6], 493.
In the case of Bio-PTHT (peptide), the copy number in the assay with streptavidin [1] turned out to be 118; with streptavidin [2], 178; with streptavidin [3], 154. The Ratio with streptavidin [4] was found to be 75; with streptavidin [5], 64; with streptavidin [6] it was 500.
Take Bio-PVSI (peptide): the results for the copy number in the assay with streptavidin [1], in the assay with streptavidin [2] and in the assay with streptavidin [3] were 128, 94 and 75, respectively. Moreover, the Ratio with streptavidin [4] was found to be 49; in the assay with streptavidin [5] it was 74; with streptavidin [6] it was 330.
In the case of Bio-VHAW (peptide), the copy number in the assay with streptavidin [1] was found to be 119; with streptavidin [2], 39; with streptavidin [3], 73. Moreover, the values for the Ratio with streptavidin [4], in the assay with streptavidin [5] and in the assay with streptavidin [6] were 257, 38 and 257, respectively.
Regarding Bio-VHNT (peptide), the figures for the copy number with streptavidin [1], in the assay with streptavidin [2] and with streptavidin [3] were 110, 87 and 29, respectively. In addition, the values for the Ratio with streptavidin [4], in the assay with streptavidin [5] and with streptavidin [6] were 75, 75 and 251, respectively.
Consider Bio-WYPH (peptide), for which the copy number with streptavidin [1] was determined as 127; with streptavidin [2], 150; with streptavidin [3], 85. In addition, the results for the Ratio in the assay with streptavidin [4], with streptavidin [5] and with streptavidin [6] were 121, 72 and 402, respectively.
As for Bio-YMNN (peptide), the results for the copy number in the assay with streptavidin [1], in the assay with streptavidin [2] and with streptavidin [3] were 40, 134 and 110, respectively. Moreover, the Ratio with streptavidin [4] was 24; in the assay with streptavidin [5], 142; with streptavidin [6], 316.
For the substance SA-QIEH (peptide), the copy number in assay [7] turned out to be 20; in assay [8], 35; in [9], 27. For the same substance, the values for the Ratio in assay [10], in [11] and in assay [12] were 2, 3 and 91, respectively.
For the substance SA-TAFI (peptide), the copy number came to 58 in assay [7], 44 in [8] and 48 in assay [9]. The results for the Ratio in assay [10], in assay [11] and in assay [12] were 75, 167 and 167, respectively.
On to SA-WFKL (peptide), for which the copy number in assay [7] came to 5; in assay [8] it was 3; in [9], 2. Also, the Ratio in assay [10], in assay [11] and in assay [12] was 11 in each case.
In the case of SA-WKQQ (peptide), the copy number in assay [7] was found to be 2; in assay [8] it was 3; in [9] it was 4. The Ratio in assay [10], in [11] and in assay [12] was 10 in each case.
As to SA-WLVL (peptide), the copy number in assay [7] came to 4; in assay [8] it was 4; in [9], 3. Further, the Ratio in assay [10], in assay [11] and in [12] was 12 in each case.
As for SA-WNSK (peptide), the copy number in assay [7] stood at 4; in [8], 3; in assay [9], 2. Moreover, the Ratio in [10], in [11] and in assay [12] was 10 throughout.
Regarding SA-WNTK (peptide), the figures for the copy number in [7], in [8] and in assay [9] were 256, 121 and 228, respectively. Moreover, the Ratio in [10] is 38; in assay [11], 19; in [12] it was 672.
Consider SA-WPPP (peptide), for which the copy number in assay [7] stood at 10; in assay [8] it was 10; in [9] it was 15. Further, the Ratio in [10] came out at 35; in [11], 6; in assay [12] it was 39.
Regarding SA-WPPY (peptide), the values for the copy number in [7], in assay [8] and in assay [9] were 16, 17 and 20, respectively. Further, the Ratio in [10] was found to be 5; in assay [11], 4; in assay [12], 59.
For the substance SA-WQQQ (peptide), the values for the copy number in assay [7], in [8] and in assay [9] were 422, 403 and 596, respectively. For the same substance, the Ratio was 102 in [10], 178 in assay [11] and 1580 in assay [12].
For SA-WSVM (peptide), the copy number was 2 in assay [7], 3 in assay [8] and 4 in [9]. In addition, the Ratio in assay [10], in assay [11] and in assay [12] was 10 each time.
Turning to SA-WTSG (peptide), the copy number in assay [7] worked out at 30; in [8], 63; in assay [9] it was 46. Also, the Ratio was determined as 11 in [10], 9 in [11] and 154 in [12].
Take SA-WTWL (peptide): the results for the copy number in assay [7], in [8] and in assay [9] were 57, 43 and 26, respectively. Further, the figures for the Ratio in [10], in assay [11] and in [12] were 21, 140 and 140, respectively.
For the substance SA-WTYW (peptide), the copy number turned out to be 33 in [7], 18 in assay [8] and 15 in [9]. Further, the Ratio in [10] is 8; in [11], 6; in [12] it was 73.
